Here are results for three proteins from US20070196883.

In data set [1] the target is GST-PIF (glutathione-S-transferase fusion of the C-terminal 77 amino acids of PRK2).
Data set [2] deals with GST-PIF mutant Asp978 to Ala.
Data set [3] deals with GST-PIF mutant Asp978 to Ser.
Data set [4] has as its target GST-PIF mutant F974 to Ala.
Data set [5] deals with GST-PIF mutant F977 to Ala.
Data set [6] concerns the target GST-PIF mutant Y979 to Ala.
The target in the next data set is T1, D978A-Region B peptide.
T1 chain: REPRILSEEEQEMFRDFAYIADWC

The target in data set [7] is T2, Region B peptide (24 residue synthetic peptide corresponding to Region B of PIF).
T2 chain: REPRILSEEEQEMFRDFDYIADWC

Sequence of GST-PIF mutant F977 to Ala (chain, as listed by the source mutant): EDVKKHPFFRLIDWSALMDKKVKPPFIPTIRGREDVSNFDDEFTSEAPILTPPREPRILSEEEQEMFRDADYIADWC
Sequence of GST-PIF mutant Y979 to Ala (chain, as listed by the source mutant): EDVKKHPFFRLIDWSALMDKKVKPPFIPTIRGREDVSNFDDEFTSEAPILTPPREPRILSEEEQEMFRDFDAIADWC
Sequence of GST-PIF mutant F974 to Ala (chain, as listed by the source mutant): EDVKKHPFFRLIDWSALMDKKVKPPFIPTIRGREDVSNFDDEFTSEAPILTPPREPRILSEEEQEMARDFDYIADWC
Sequence of GST-PIF mutant Asp978 to Ser (chain, as listed by the source mutant): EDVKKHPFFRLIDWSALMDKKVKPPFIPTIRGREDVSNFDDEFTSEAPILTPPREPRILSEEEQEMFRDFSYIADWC

B1: endogenous PDK1 of 293 cells (protein)
chain: MARTTSQLYDAVPIQSSVVLCSCPSPSMVRTQTESSTPPGIPGGSRQGPAMDGTAAEPRPGAGSLQHAQPPPQPRKKRPEDFKFGKILGEGSFSTVVLARELATSREYAIKILEKRHIIKENKVPYVTRERDVMSRLDHPFFVKLYFTFQDDEKLYFGLSYAKNGELLKYIRKIGSFDETCTRFYTAEIVSALEYLHGKGIIHRDLKPENILLNEDMHIQITDFGTAKVLSPESKQARANSFVGTAQYVSPELLTEKSACKSSDLWALGCIIYQLVAGLPPFRAGNEYLIFQKIIKLEYDFPEKFFPKARDLVEKLLVLDATKRLGCEEMEGYGPLKAHPFFESVTWENLHQQTPPKLTAYLPAMSEDDEDCYGNYDNLLSQFGCMQVSSSSSSHSLSASDTGLPQRSGSNIEQYIHDLDSNSFELDLQFSEDEKRLLLEKQAGGNPWHQFVENNLILKMGPVDKRKGLFARRRQLLLTEGPHLYYVDPVNKVLKGEIPWSQELRPEAKNFKTFFVHTPNRTYYLMDPSGNAHKWCRKIQEVWRQRYQSHPDAAVQ
Turning to B1, the “activation of GST-S473D-PKBα (Thr308 phosphorylation) by PDK1 associated with GST-PIF (0.5 µg)” value in data set [1] is given as “greatly activated a GST-A473D-PKBα mutant”. Further, the “phosphorylation of PKBα at Ser473 (P-473 immunoblot)” value in data set [2], in data set [3], in data set [4], in data set [5] and in data set [6] was “prevented the phosphorylation of PKBα at Ser473” throughout.

B2: His-PDK1 (Myc-PDK1 with an N-terminal hexahistidine sequence, from Sf21 insect cells) (protein)
chain: MARTTSQLYDAVPIQSSVVLCSCPSPSMVRTQTESSTPPGIPGGSRQGPAMDGTAAEPRPGAGSLQHAQPPPQPRKKRPEDFKFGKILGEGSFSTVVLARELATSREYAIKILEKRHIIKENKVPYVTRERDVMSRLDHPFFVKLYFTFQDDEKLYFGLSYAKNGELLKYIRKIGSFDETCTRFYTAEIVSALEYLHGKGIIHRDLKPENILLNEDMHIQITDFGTAKVLSPESKQARANSFVGTAQYVSPELLTEKSACKSSDLWALGCIIYQLVAGLPPFRAGNEYLIFQKIIKLEYDFPEKFFPKARDLVEKLLVLDATKRLGCEEMEGYGPLKAHPFFESVTWENLHQQTPPKLTAYLPAMSEDDEDCYGNYDNLLSQFGCMQVSSSSSSHSLSASDTGLPQRSGSNIEQYIHDLDSNSFELDLQFSEDEKRLLLEKQAGGNPWHQFVENNLILKMGPVDKRKGLFARRRQLLLTEGPHLYYVDPVNKVLKGEIPWSQELRPEAKNFKTFFVHTPNRTYYLMDPSGNAHKWCRKIQEVWRQRYQSHPDAAVQ
For B2, the “phosphorylation of PKBα at Ser473 (P-473 immunoblot, 32P peptide mapping)” value in the data set with D978A-Region B peptide is on record as “far less effective at inducing this alteration in the specificity of PDK1”.

B3: wild type GST-PDK1 (protein)
chain: MARTTSQLYDAVPIQSSVVLCSCPSPSMVRTQTESSTPPGIPGGSRQGPAMDGTAAEPRPGAGSLQHAQPPPQPRKKRPEDFKFGKILGEGSFSTVVLARELATSREYAIKILEKRHIIKENKVPYVTRERDVMSRLDHPFFVKLYFTFQDDEKLYFGLSYAKNGELLKYIRKIGSFDETCTRFYTAEIVSALEYLHGKGIIHRDLKPENILLNEDMHIQITDFGTAKVLSPESKQARANSFVGTAQYVSPELLTEKSACKSSDLWALGCIIYQLVAGLPPFRAGNEYLIFQKIIKLEYDFPEKFFPKARDLVEKLLVLDATKRLGCEEMEGYGPLKAHPFFESVTWENLHQQTPPKLTAYLPAMSEDDEDCYGNYDNLLSQFGCMQVSSSSSSHSLSASDTGLPQRSGSNIEQYIHDLDSNSFELDLQFSEDEKRLLLEKQAGGNPWHQFVENNLILKMGPVDKRKGLFARRRQLLLTEGPHLYYVDPVNKVLKGEIPWSQELRPEAKNFKTFFVHTPNRTYYLMDPSGNAHKWCRKIQEVWRQRYQSHPDAAVQ
As for B3, in data set [7], the “phosphorylation of PKBα at Ser473” value was “The region B peptide converts the wild type GST-PDK1, but not the kinase dead GST-PDK1, into a kinase which can phosphorylate Ser473 (data not shown)”.
